T1: recombinant murine CD40 protein (murine, UniProt P27512 24-193, limits assumed)
T1 construct: Bought; coated on the ELISA plate; also called mouse CD40; mCD40
T1 sequence (looked up): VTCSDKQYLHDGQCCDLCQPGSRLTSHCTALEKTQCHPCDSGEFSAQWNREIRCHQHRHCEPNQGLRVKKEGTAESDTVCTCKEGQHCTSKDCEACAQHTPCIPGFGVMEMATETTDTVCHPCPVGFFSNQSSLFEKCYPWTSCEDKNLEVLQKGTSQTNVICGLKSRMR

T2: murine DR5 on MC38 cells (murine, UniProt Q9QZM4 53-381)
T2 construct: whole, on cells; also called mDR5
T2 sequence (looked up): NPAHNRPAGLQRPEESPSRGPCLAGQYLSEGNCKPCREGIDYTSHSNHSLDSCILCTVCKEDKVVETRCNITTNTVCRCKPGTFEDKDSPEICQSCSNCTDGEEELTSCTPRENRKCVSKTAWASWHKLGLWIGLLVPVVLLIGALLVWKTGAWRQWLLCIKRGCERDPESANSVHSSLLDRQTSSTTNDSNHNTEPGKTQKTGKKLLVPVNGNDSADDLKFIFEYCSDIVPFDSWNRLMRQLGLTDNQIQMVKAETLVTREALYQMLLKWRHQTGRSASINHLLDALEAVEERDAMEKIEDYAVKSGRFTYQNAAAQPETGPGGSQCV

T3: human FcγRIIA-R131 extracellular domain protein (human, UniProt P12318 34-217)
T3 construct: extracellular domain; SPR: His-tagged, immobilised; ELISA: biotinylated; also called hFcγRIIA-R131; CD32a
T3 sequence (looked up): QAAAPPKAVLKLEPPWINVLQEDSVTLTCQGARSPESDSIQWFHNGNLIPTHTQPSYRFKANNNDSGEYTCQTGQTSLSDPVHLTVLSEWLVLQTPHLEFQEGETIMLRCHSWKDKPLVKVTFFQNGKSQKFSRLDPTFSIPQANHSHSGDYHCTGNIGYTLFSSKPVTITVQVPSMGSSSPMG


biological target: T1, recombinant murine CD40 protein; assay: ELISA: plate coated with recombinant murine CD40, antibody in gradient dilutions, HRP-labelled goat anti-human IgG-Fc secondary antibody, A650
Method: For assay on anti-human CD40 antibodies, an ELISA plate was coated with recombinant human CD40 protein (Novoprotein Scientific Inc.) overnight at atmospheric temperature, blocked using 1% BSA at room temperature for 2 h, and then washed three times with PBST (0.05% Tween 20 in PBS). To each well was added […] gradient dilutions of the human agonistic CD40 antibody. The plate was incubated at room temperature for 1 h and washed four times with PBST. Then, 100 ng/ml biotinylated secondary antibody against human Igκ light chain was added, incubated at room temperature for 1 h and washed 4 times with PBST. SAV-HRP at an appropriate concentration was added, incubated at room temperature for 1 h. Then, chromogenic substrate was added to react for 5 minutes, and optical absorbance was determined at 650 nm.
For assay on anti-murine CD40 antibodies, the process was the same, expect that the plate was coated with recombinant murine CD40 protein (Novoprotein Scientific Inc.) and HRP-labeled goat anti-human IgG-Fc antibody was used as the secondary antibody.

Row | Binder | EC50 (read off the curve) [µg/mL]
1 | Anti-mCD40-hIgG1 (antibody, Chimeric anti-murine CD40 antibody, heavy chain constant region G1) heavy: not shown light: DTVLTQSPALAVSPGERVTISCRASDSVSTLMHWYQQKPGQQPKLLIYLASHLESGVPARFSGSGSGTDFTLTIDPVEADDTATYYCQQSWNDPWTFGGGTKLELKRTVAAPSVFIFPPSDEQLKSGTASVVCLLNNFYPREAKVQWKVDNALQSGNSQESVTEQDSKDSTYSLSSTLTLSKADYEKHKVYACEVTHQGLSSPVTKSFNRGEC | ~0.1

biological target: T2, murine DR5 on MC38 cells; assay: flow cytometry on MC38 cells, FITC goat anti-human antibody
Method: To detect the DR5 binding capacity of different anti-DR5 antibodies, MC38 cells were resuspended in ice-cold FACS buffer (PBS+0.5% FBS+2 mM EDTA+0.1% NaN3), to which 3.16-fold gradient dilutions of control and anti-DR5 antibody at concentrations ranging from 2 ng to 20 µg/mL were added, and the reaction was incubated at room temperature for 15 minutes. The system was washed twice with ice-cold FACS buffer, then flow-cytometry stained using FITC-labeled goat anti-human antibody (VECTOR FI-3080) on ice for 25 minutes in dark, which was then washed twice with FACS buffer and analyzed by flow-cytometry. For the antibodies, the DR5 binding capacity was positively correlated to FITC mean fluorescence intensity (MFI).

Row | Binder | binding result
2 | Anti-mDR5-hIgG2 (antibody, Chimeric anti-murine DR5 antibody, heavy chain constant region G2; also called Anti-mDR5-IgG2) heavy: QIQLQESGPGLVKPAQSLSLTCSITGFPITAGGYWWTWIRQFPGQKLEWMGYIYSSGSTNYNPSIKSRISITRDTAKNQFFLQLNSVTTEEDTAIYYCARAGTSYSGFFDSWGQGTLVTVSSASTKGPSVFPLAPCSRSTSESTAALGCLVKDYFPEPVTVSWNSGALTSGVHTFPAVLQSSGLYSLSSVVTVPSSNFGTQTYTCNVDHKPSNTKVDKTVERKCCVECPPCPAPPVAGPSVFLFPPKPKDTLMISRTPEVTCVVVDVSHEDPEVQFNWYVDGVEVHNAKTKPREEQFNSTFRVVSVLTVVHQDWLNGKEYKCKVSNKGLPAPIEKTISKTKGQPREPQVYTLPPSREEMTKNQVSLTCLVKGFYPSDIAVEWESNGQPENNYKTTPPMLDSDGSFFLYSKLTVDKSRWQQGNVFSCSVMHEALHNHYTQKSLSLSPGK light: DIQVTQSPSLLSASFGDKVTINCLVTQDITYYLSWYQQKSGQPPTLLIYNGNSLQSGVPSRFSGQYSGRTFTLSLSSLEPEDAGTYYCLQHYSVPFTFGGGTRLEIKRTVAAPSVFIFPPSDEQLKSGTASVVCLLNNFYPREAKVQWKVDNALQSGNSQESVTEQDSKDSTYSLSSTLTLSKADYEKHKVYACEVTHQGLSSPVTKSFNRGEC | binds
3 | Anti-mDR5-hIgG1(V11) (antibody, Chimeric anti-murine DR5 antibody, heavy chain constant region V11(H1)) heavy: QIQLQESGPGLVKPAQSLSLTCSITGFPITAGGYWWTWIRQFPGQKLEWMGYIYSSGSTNYNPSIKSRISITRDTAKNQFFLQLNSVTTEEDTAIYYCARAGTSYSGFFDSWGQGTLVTVSSATTKGPSVFPLAPSSKSTSGGTAALGCLVKDYFPEPVTVSWNSGALTSGVHTFPAVLQSSGLYSLSSVVTVPSSSLGTQTYICNVNHKPSNTKVDKRVEPKSCDKTHTCPPCPAPELLGDDSVFLFPPKPKDTLMISRTPEVTCVVVDVSDEDGEVKFNWYVDGVEVHNAKTKPREEQYNSTYRVVSVLTVLHQDWLNGKEYKCKVSNKALPRPIEKTISKAKGQPREPQVYTLPPSRDELTKNQVSLTCLVKGFYPSDIAVEWESNGQPENNYKTTPPVLDSDGSFFLYSKLTVDKSRWQQGNVFSCSVMHEALHNHYTQKSLSLSPGK light: DIQVTQSPSLLSASFGDKVTINCLVTQDITYYLSWYQQKSGQPPTLLIYNGNSLQSGVPSRFSGQYSGRTFTLSLSSLEPEDAGTYYCLQHYSVPFTFGGGTRLEIKRTVAAPSVFIFPPSDEQLKSGTASVVCLLNNFYPREAKVQWKVDNALQSGNSQESVTEQDSKDSTYSLSSTLTLSKADYEKHKVYACEVTHQGLSSPVTKSFNRGEC | binds
4 | Anti-mDR5-IgG2(V11) (antibody, Chimeric anti-murine DR5 antibody, heavy chain constant region V11(H2), i.e. JAC1) heavy: QIQLQESGPGLVKPAQSLSLTCSITGFPITAGGYWWTWIRQFPGQKLEWMGYIYSSGSTNYNPSIKSRISITRDTAKNQFFLQLNSVTTEEDTAIYYCARAGTSYSGFFDSWGQGTLVTVSSASTKGPSVFPLAPCSRSTSESTAALGCLVKDYFPEPVTVSWNSGALTSGVHTFPAVLQSSGLYSLSSVVTVPSSNFGTQTYTCNVDHKPSNTKVDKTVERKCCVECPPCPAPELLGDDSVFLFPPKPKDTLMISRTPEVTCVVVDVSDEDGEVKFNWYVDGVEVHNAKTKPREEQYNSTYRVVSVLTVLHQDWLNGKEYKCKVSNKALPRPIEKTISKAKGQPREPQVYTLPPSRDELTKNQVSLTCLVKGFYPSDIAVEWESNGQPENNYKTTPPVLDSDGSFFLYSKLTVDKSRWQQGNVFSCSVMHEALHNHYTQKSLSLSPGK light: DIQVTQSPSLLSASFGDKVTINCLVTQDITYYLSWYQQKSGQPPTLLIYNGNSLQSGVPSRFSGQYSGRTFTLSLSSLEPEDAGTYYCLQHYSVPFTFGGGTRLEIKRTVAAPSVFIFPPSDEQLKSGTASVVCLLNNFYPREAKVQWKVDNALQSGNSQESVTEQDSKDSTYSLSSTLTLSKADYEKHKVYACEVTHQGLSSPVTKSFNRGEC | binds
5 | Anti-mDR5-hIgG1-GASDALIE (antibody) heavy: QIQLQESGPGLVKPAQSLSLTCSITGFPITAGGYWWTWIRQFPGQKLEWMGYIYSSGSTNYNPSIKSRISITRDTAKNQFFLQLNSVTTEEDTAIYYCARAGTSYSGFFDSWGQGTLVTVSSATTKGPSVFPLAPSSKSTSGGTAALGCLVKDYFPEPVTVSWNSGALTSGVHTFPAVLQSSGLYSLSSVVTVPSSSLGTQTYICNVNHKPSNTKVDKRVEPKSCDKTHTCPPCPAPELLAGPDVFLFPPKPKDTLMISRTPEVTCVVVDVSHEDPEVKFNWYVDGVEVHNAKTKPREEQYNSTYRVVSVLTVLHQDWLNGKEYKCKVSNKALPLPEEKTISKAKGQPREPQVYTLPPSRDELTKNQVSLTCLVKGFYPSDIAVEWESNGQPENNYKTTPPVLDSDGSFFLYSKLTVDKSRWQQGNVFSCSVMHEALHNHYTQKSLSLSPGK light: DIQVTQSPSLLSASFGDKVTINCLVTQDITYYLSWYQQKSGQPPTLLIYNGNSLQSGVPSRFSGQYSGRTFTLSLSSLEPEDAGTYYCLQHYSVPFTFGGGTRLEIKRTVAAPSVFIFPPSDEQLKSGTASVVCLLNNFYPREAKVQWKVDNALQSGNSQESVTEQDSKDSTYSLSSTLTLSKADYEKHKVYACEVTHQGLSSPVTKSFNRGEC | binds

biological target: T3, human FcγRIIA-R131 extracellular domain …; assay: ELISA: plate coated with the anti-human CD40 antibody, biotinylated human FcγRIIA-R131 extracellular domain, streptavidin-HRP, A650 [lower FcγRIIA-R131 panel]
Method: The ELISA plate was coated with 100 μL antibody at an appropriate concentration overnight, supernatant being discarded. The plate was blocked with 1% BSA in PBS for 2 hours, followed by washing with PBST (PBS with 0.05% Tween 20). Then, biotinylated FcγR extracellular domain protein (Sino Biologic Inc., Beijing China) at a concentration as appropriate was added and incubated at room temperature for 1 hour, supernatant being discarded, followed by PBST wash. Streptavidin-HRP (BD Biosciences) was added and incubated at room temperature for 1 hour for detection of biotin protein. After removal of supernatant, developing solution was added to react for 20-40 minutes, and absorbance was determined at 650 nm (A650).

Row | Binder | binding result
6 | Anti-hCD40-hIgG1(V11) (antibody, Human anti-human CD40 antibody, heavy chain constant region V11(H1)) heavy: not shown light: DIQMTQSPSSVSASVGDRVTITCRASQGIYSWLAWYQQKPGKAPNLLIYTASTLQSGVPSRFSGSGSGTDFTLTISSLQPEDFATYYCQQANIFPLTFGGGTKVEIKRTVAAPSVFIFPPSDEQLKSGTASVVCLLNNFYPREAKVQWKVDNALQSGNSQESVTEQDSKDSTYSLSSTLTLSKADYEKHKVYACEVTHQGLSSPVTKSFNRGEC | binds
7 | Anti-hCD40-hIgG2-SELF (antibody, Human anti-human CD40 antibody, heavy chain constant region G2-SELF, i.e. JAC3; also called anti-human CD40 antibody comprising JAC3) heavy: not shown light: DIQMTQSPSSVSASVGDRVTITCRASQGIYSWLAWYQQKPGKAPNLLIYTASTLQSGVPSRFSGSGSGTDFTLTISSLQPEDFATYYCQQANIFPLTFGGGTKVEIKRTVAAPSVFIFPPSDEQLKSGTASVVCLLNNFYPREAKVQWKVDNALQSGNSQESVTEQDSKDSTYSLSSTLTLSKADYEKHKVYACEVTHQGLSSPVTKSFNRGEC | binds
8 | Anti-hCD40-hIgG2-HDPG (antibody, Human anti-human CD40 antibody, heavy chain constant region G2-HDPG, i.e. JAC4; also called anti-human CD40 antibody comprising JAC4) heavy: not shown light: DIQMTQSPSSVSASVGDRVTITCRASQGIYSWLAWYQQKPGKAPNLLIYTASTLQSGVPSRFSGSGSGTDFTLTISSLQPEDFATYYCQQANIFPLTFGGGTKVEIKRTVAAPSVFIFPPSDEQLKSGTASVVCLLNNFYPREAKVQWKVDNALQSGNSQESVTEQDSKDSTYSLSSTLTLSKADYEKHKVYACEVTHQGLSSPVTKSFNRGEC | binds
9 | Anti-hCD40-hIgG2-SE (antibody, Human anti-human CD40 antibody, heavy chain constant region G2-SE) heavy: not shown light: DIQMTQSPSSVSASVGDRVTITCRASQGIYSWLAWYQQKPGKAPNLLIYTASTLQSGVPSRFSGSGSGTDFTLTISSLQPEDFATYYCQQANIFPLTFGGGTKVEIKRTVAAPSVFIFPPSDEQLKSGTASVVCLLNNFYPREAKVQWKVDNALQSGNSQESVTEQDSKDSTYSLSSTLTLSKADYEKHKVYACEVTHQGLSSPVTKSFNRGEC | binds

— patent US20190263918A1 (SHANGHAI JIAO TONG UNIVERSITY SCHOOL OF MEDICINE, published 2019)
